Literature values as cited in paper PMC10716173.

Target: stapled BID BH3 peptide BH3 (Homo sapiens) (UniProt P55957)
Sequence (P55957 80-101): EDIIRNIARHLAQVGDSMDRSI

Chain of BAK (Q16611 2-211): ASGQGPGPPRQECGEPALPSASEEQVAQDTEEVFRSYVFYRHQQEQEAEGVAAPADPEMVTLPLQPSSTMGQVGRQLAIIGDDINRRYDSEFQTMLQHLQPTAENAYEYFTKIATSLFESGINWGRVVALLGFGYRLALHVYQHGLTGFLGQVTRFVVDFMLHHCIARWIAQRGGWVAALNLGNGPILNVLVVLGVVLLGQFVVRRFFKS

- Kd: 1 µM
Substance: BAK (from UniProt Q16611)
